According to the supplement of paper PMC9112550, “Optimization of the antimicrobial peptide Bac7 by deep mutational scanning” (BMC Biology, 2022):

System: Escherichia coli TOP10
Assay: shrunken log2 fold change of peptide-encoding DNA abundance (4.5 h post-induction vs induction); higher = less antimicrobial activity (less host growth inhibition)
Conditions: time post-induction: 4.5 h; library: site-saturation at positions 5, 18, 19, 20
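Also: peptides expressed intracellularly from a pBAD plasmid library in pooled LB shake-flask culture, induced with 0.3% L-arabinose, DNA abundance read by NGS, three biological replicates, DESeq2 with apeglm shrinkage.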

| Sequence | shrunken log2 fold change |
| --- | --- |
| RRIRWRPPRLPRPRPRPTKDPRP | 0.214 |
| RRIRWRPPRLPRPRPRPTKEPRP | 0.177 |
| RRIRWRPPRLPRPRPRPTKFPRP | 0.142 |
| RRIRWRPPRLPRPRPRPTLCPRP | 0.127 |
| RRIRWRPPRLPRPRPRPTLDPRP | 0.745 |
| RRIRWRPPRLPRPRPRPTLPPRP | 0.128 |
| RRIRWRPPRLPRPRPRPTMGPRP | 0.272 |
| RRIRWRPPRLPRPRPRPTPQPRP | 1.63 |
| RRIRWRPPRLPRPRPRPTQEPRP | 0.0333 |
| RRIRWRPPRLPRPRPRPTQSPRP | 0.472 |
| RRIRWRPPRLPRPRPRPTRHPRP | 0.37 |
| RRIRWRPPRLPRPRPRPTRRPRP | 0.377 |
| RRIRWRPPRLPRPRPRPTSLPRP | 0.0239 |
| RRIRWRPPRLPRPRPRPTTLPRP | -0.0826 |
| RRIRWRPPRLPRPRPRPTWGPRP | 0.356 |
| RRIRWRPPRLPRPRPRPTWNPRP | 0.306 |
| RRIRWRPPRLPRPRPRPTWQPRP | 0.125 |
| RRIRWRPPRLPRPRPRPTYSPRP | -0.163 |
| RRIRWRPPRLPRPRPRPVAIPRP | -0.0829 |
| RRIRWRPPRLPRPRPRPVCKPRP | 0.643 |
| RRIRWRPPRLPRPRPRPVCQPRP | -0.0154 |
| RRIRWRPPRLPRPRPRPVCRPRP | 0.353 |
| RRIRWRPPRLPRPRPRPVEIPRP | -0.206 |
| RRIRWRPPRLPRPRPRPVEKPRP | 0.234 |
| RRIRWRPPRLPRPRPRPVERPRP | 0.398 |

| Sequence | shrunken log2 fold change |
| --- | --- |
| RRIRWRPPRLPRPRPRPVETPRP | -0.0256 |
| RRIRWRPPRLPRPRPRPVFMPRP | -0.0684 |
| RRIRWRPPRLPRPRPRPVFQPRP | 0.183 |
| RRIRWRPPRLPRPRPRPVILPRP | -0.208 |
| RRIRWRPPRLPRPRPRPVIWPRP | 0.147 |
| RRIRWRPPRLPRPRPRPVKLPRP | -0.0719 |
| RRIRWRPPRLPRPRPRPVLPPRP | -0.0604 |
| RRIRWRPPRLPRPRPRPVMGPRP | 0.37 |
| RRIRWRPPRLPRPRPRPVMNPRP | -0.133 |
| RRIRWRPPRLPRPRPRPVNAPRP | 0.0945 |
| RRIRWRPPRLPRPRPRPVPEPRP | 0.634 |
| RRIRWRPPRLPRPRPRPVQDPRP | -0.103 |
| RRIRWRPPRLPRPRPRPVRWPRP | 0.874 |
| RRIRWRPPRLPRPRPRPVRYPRP | 0.00421 |
| RRIRWRPPRLPRPRPRPVSHPRP | -0.0115 |
| RRIRWRPPRLPRPRPRPVTFPRP | -0.186 |
| RRIRWRPPRLPRPRPRPVTIPRP | -0.269 |
| RRIRWRPPRLPRPRPRPVTKPRP | 0.235 |
| RRIRWRPPRLPRPRPRPVVRPRP | 0.405 |
| RRIRWRPPRLPRPRPRPVVTPRP | 0.338 |
| RRIRWRPPRLPRPRPRPWAHPRP | 0.0966 |
| RRIRWRPPRLPRPRPRPWDMPRP | -0.00946 |
| RRIRWRPPRLPRPRPRPWDQPRP | 0.00408 |
| RRIRWRPPRLPRPRPRPWDVPRP | 0.0249 |
| RRIRWRPPRLPRPRPRPWEPPRP | -0.0178 |

| Sequence | shrunken log2 fold change |
| --- | --- |
| RRIRWRPPRLPRPRPRPWFRPRP | -0.251 |
| RRIRWRPPRLPRPRPRPWGAPRP | 0.297 |
| RRIRWRPPRLPRPRPRPWGEPRP | 0.039 |
| RRIRWRPPRLPRPRPRPWHEPRP | 0.356 |
| RRIRWRPPRLPRPRPRPWHTPRP | 0.103 |
| RRIRWRPPRLPRPRPRPWIIPRP | -0.267 |
| RRIRWRPPRLPRPRPRPWIKPRP | -0.203 |
| RRIRWRPPRLPRPRPRPWMRPRP | 0.526 |
| RRIRWRPPRLPRPRPRPWQTPRP | -0.0178 |
| RRIRWRPPRLPRPRPRPWRMPRP | -0.182 |
| RRIRWRPPRLPRPRPRPWSAPRP | 0.228 |
| RRIRWRPPRLPRPRPRPWTHPRP | -0.11 |
| RRIRWRPPRLPRPRPRPWWCPRP | -0.0237 |
| RRIRWRPPRLPRPRPRPWWIPRP | 0.109 |
| RRIRWRPPRLPRPRPRPWWVPRP | 0.13 |
| RRIRWRPPRLPRPRPRPWYMPRP | -0.885 |
| RRIRWRPPRLPRPRPRPYANPRP | -0.399 |
| RRIRWRPPRLPRPRPRPYATPRP | 0.289 |
| RRIRWRPPRLPRPRPRPYDCPRP | 0.00333 |
| RRIRWRPPRLPRPRPRPYDLPRP | -0.021 |
| RRIRWRPPRLPRPRPRPYDPPRP | -0.126 |
| RRIRWRPPRLPRPRPRPYDTPRP | -0.495 |
| RRIRWRPPRLPRPRPRPYEMPRP | -0.893 |
| RRIRWRPPRLPRPRPRPYFIPRP | -0.647 |
| RRIRWRPPRLPRPRPRPYFKPRP | -0.839 |

| Sequence | shrunken log2 fold change |
| --- | --- |
| RRIRWRPPRLPRPRPRPYFSPRP | -0.722 |
| RRIRWRPPRLPRPRPRPYGQPRP | 0.051 |
| RRIRWRPPRLPRPRPRPYIAPRP | -0.825 |
| RRIRWRPPRLPRPRPRPYINPRP | -0.536 |
| RRIRWRPPRLPRPRPRPYMFPRP | -0.194 |
| RRIRWRPPRLPRPRPRPYPKPRP | 0.11 |
| RRIRWRPPRLPRPRPRPYREPRP | -0.773 |
| RRIRWRPPRLPRPRPRPYSVPRP | -0.55 |
| RRIRWRPPRLPRPRPRPYTQPRP | 0.167 |
| RRIRWRPPRLPRPRPRPYWCPRP | -0.704 |
| RRIRWRPPRLPRPRPRPYYRPRP | -0.0707 |
| RRIRYRPPRLPRPRPRPADTPRP | -0.00151 |
| RRIRYRPPRLPRPRPRPADWPRP | 0.0899 |
| RRIRYRPPRLPRPRPRPAENPRP | -0.317 |
| RRIRYRPPRLPRPRPRPAFFPRP | -0.405 |
| RRIRYRPPRLPRPRPRPAFIPRP | -0.24 |
| RRIRYRPPRLPRPRPRPAGHPRP | -0.0387 |
| RRIRYRPPRLPRPRPRPAHAPRP | 0.154 |
| RRIRYRPPRLPRPRPRPAHLPRP | -0.0584 |
| RRIRYRPPRLPRPRPRPAIPPRP | -0.66 |
| RRIRYRPPRLPRPRPRPAIQPRP | -0.316 |
| RRIRYRPPRLPRPRPRPAKGPRP | -0.183 |
| RRIRYRPPRLPRPRPRPAKNPRP | -0.508 |
| RRIRYRPPRLPRPRPRPAKTPRP | -0.00829 |
| RRIRYRPPRLPRPRPRPAKVPRP | 0.00738 |

| Sequence | shrunken log2 fold change |
| --- | --- |
| RRIRYRPPRLPRPRPRPALCPRP | -0.0404 |
| RRIRYRPPRLPRPRPRPAMEPRP | 0.0738 |
| RRIRYRPPRLPRPRPRPANMPRP | -0.683 |
| RRIRYRPPRLPRPRPRPAPRPRP | 0.57 |
| RRIRYRPPRLPRPRPRPAQGPRP | -0.0469 |
| RRIRYRPPRLPRPRPRPAQIPRP | -0.347 |
| RRIRYRPPRLPRPRPRPAQLPRP | -0.392 |
| RRIRYRPPRLPRPRPRPAQMPRP | 0.0755 |
| RRIRYRPPRLPRPRPRPAQTPRP | 0.0654 |
| RRIRYRPPRLPRPRPRPARAPRP | 0.524 |
| RRIRYRPPRLPRPRPRPARLPRP | -0.0429 |
| RRIRYRPPRLPRPRPRPARPPRP | 0.943 |
| RRIRYRPPRLPRPRPRPARQPRP | 0.279 |
| RRIRYRPPRLPRPRPRPARRPRP | 0.234 |
| RRIRYRPPRLPRPRPRPARYPRP | -0.000578 |
| RRIRYRPPRLPRPRPRPATNPRP | -0.387 |
| RRIRYRPPRLPRPRPRPATRPRP | 0.098 |
| RRIRYRPPRLPRPRPRPAVDPRP | -0.0338 |
| RRIRYRPPRLPRPRPRPAVQPRP | -0.505 |
| RRIRYRPPRLPRPRPRPAWPPRP | 0.363 |
| RRIRYRPPRLPRPRPRPAYTPRP | -0.222 |
| RRIRYRPPRLPRPRPRPCAIPRP | -0.0633 |
| RRIRYRPPRLPRPRPRPCCCPRP | -0.211 |
| RRIRYRPPRLPRPRPRPCDLPRP | -0.618 |
| RRIRYRPPRLPRPRPRPCEAPRP | -0.123 |

| Sequence | shrunken log2 fold change |
| --- | --- |
| RRIRYRPPRLPRPRPRPCFNPRP | -0.262 |
| RRIRYRPPRLPRPRPRPCGAPRP | -0.324 |
| RRIRYRPPRLPRPRPRPCGKPRP | -0.0542 |
| RRIRYRPPRLPRPRPRPCHIPRP | -0.0462 |
| RRIRYRPPRLPRPRPRPCHKPRP | -0.821 |
| RRIRYRPPRLPRPRPRPCHMPRP | -0.218 |
| RRIRYRPPRLPRPRPRPCICPRP | -0.0423 |
| RRIRYRPPRLPRPRPRPCIQPRP | -0.172 |
| RRIRYRPPRLPRPRPRPCKAPRP | -0.073 |
| RRIRYRPPRLPRPRPRPCKVPRP | -0.422 |
| RRIRYRPPRLPRPRPRPCMVPRP | -0.251 |
| RRIRYRPPRLPRPRPRPCPNPRP | 0.626 |
| RRIRYRPPRLPRPRPRPCRHPRP | -0.394 |
| RRIRYRPPRLPRPRPRPCRLPRP | 0.0249 |
| RRIRYRPPRLPRPRPRPCRYPRP | -0.212 |
| RRIRYRPPRLPRPRPRPCSMPRP | -0.0147 |
| RRIRYRPPRLPRPRPRPCVKPRP | -0.0312 |
| RRIRYRPPRLPRPRPRPCYEPRP | -0.246 |
| RRIRYRPPRLPRPRPRPDAAPRP | 0.294 |
| RRIRYRPPRLPRPRPRPDCTPRP | -0.268 |
| RRIRYRPPRLPRPRPRPDDYPRP | 0.0219 |
| RRIRYRPPRLPRPRPRPDEFPRP | 0.0196 |
| RRIRYRPPRLPRPRPRPDFDPRP | -0.0161 |
| RRIRYRPPRLPRPRPRPDFGPRP | -0.251 |
| RRIRYRPPRLPRPRPRPDFTPRP | -0.0212 |
